Data from publication PMC7094256 (Febs Letters, 2005).

B1: synthesized peptide ASSRSSSRSRGNSRN (aa 183–197 of SARS_N) (peptide)
peptide: ASSRSSSRSRGNSRN
B2: GST-tagged human heterogeneous nuclear ribonucleoprotein A1 (natural protein)
chain: MSKSESPKEPEQLRKLFIGGLSFETTDESLRSHFEQWGTLTDCVVMRDPNTKRSRGFGFVTYATVEEVDAAMNARPHKVDGRVVEPKRAVSREDSQRPGAHLTVKKIFVGGIKEDTEEHHLRDYFEQYGKIEVIEIMTDRGSGKKRGFAFVTFDDHDSVDKIVIQKYHTVNGHNCEVRKALSKQEMASASSSQRGRSGSGNFGGGRGGGFGGNDNFGRGGNFSGRGGFGGSRGGGGYGGSGDGYNGFGNDGSNFGGGGSYNDFGNYNNQSSNFGPMKGGNFGGRSSGPYGGGGQYFAKPRNQGGYGGSSSSSSYGSGRRF

Key:
[1] = target: B2; assay: SPR
[2] = target: His-tagged nucleocapsid protein of SARS coronavirus (SARS coronavirus, UniProt P59595 1-422); assay: SPR
Chain of His-tagged nucleocapsid protein of SARS coronavirus (P59595 whole entry): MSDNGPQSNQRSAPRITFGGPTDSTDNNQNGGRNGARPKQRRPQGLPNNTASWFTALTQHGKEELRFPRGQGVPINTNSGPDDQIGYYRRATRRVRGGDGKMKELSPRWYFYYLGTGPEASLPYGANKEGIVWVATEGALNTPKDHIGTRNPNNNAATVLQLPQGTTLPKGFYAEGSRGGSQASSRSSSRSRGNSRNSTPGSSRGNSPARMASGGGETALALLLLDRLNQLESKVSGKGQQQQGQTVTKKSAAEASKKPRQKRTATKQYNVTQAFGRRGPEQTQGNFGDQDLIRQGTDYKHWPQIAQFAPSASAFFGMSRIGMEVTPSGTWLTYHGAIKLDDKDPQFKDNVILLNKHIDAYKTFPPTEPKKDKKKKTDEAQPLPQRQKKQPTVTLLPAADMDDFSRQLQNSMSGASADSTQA

Binder | Kd [1] [µM] | Kd [2] [µM] | koff [2] [s⁻¹] | kon [2] [M⁻¹ s⁻¹]
B1 | 148 ± 12 | – | – | –
B2 | – | 0.35 ± 0.02 | 0.00206 | 5830
